According to PMC3441139:

Target: N-terminal EGFP fusion to zebrafish P2X4 crystallized construct (EGFP-ΔP2X4-A) (Danio rerio) (UniProt F8W463)
Experiment: SEC

stoichiometry N: 3
Substance: N-terminal EGFP fusion to zebrafish P2X4 crystallized construct (EGFP-ΔP2X4-A) (from UniProt F8W463 1-389) (receptor)
